Measured values from patent US20100260717, “METHODS OF […] A […] FAMILY VIRAL INFECTION, COMPOSITIONS FOR […] A […] FAMILY VIRAL INFECTION, AND […] ASSAYS FOR […] COMPOSITIONS FOR […] A […] FAMILY VIRAL INFECTION” (published 2010).

Target: HuR (ELAVL1) (Homo sapiens, UniProt Q15717 Q15717:1-326)
Test: MITOMI; not inhibited by clemizole 0.1 mM, inhibited by ATA
Conditions: tags: C-terminal V5-6xHis; bodipy-Lys labelled; wheat germ extract; ORFeome clone (Open Biosystems); label: Cy3
Experimental: Binding of HuR to the consensus 4A RNA sequence was tested in the presence of the inhibitory molecules shown to inhibit RNA binding by NS4B.

Sequence of HuR (ELAVL1) (Q15717 whole entry, one chain of several): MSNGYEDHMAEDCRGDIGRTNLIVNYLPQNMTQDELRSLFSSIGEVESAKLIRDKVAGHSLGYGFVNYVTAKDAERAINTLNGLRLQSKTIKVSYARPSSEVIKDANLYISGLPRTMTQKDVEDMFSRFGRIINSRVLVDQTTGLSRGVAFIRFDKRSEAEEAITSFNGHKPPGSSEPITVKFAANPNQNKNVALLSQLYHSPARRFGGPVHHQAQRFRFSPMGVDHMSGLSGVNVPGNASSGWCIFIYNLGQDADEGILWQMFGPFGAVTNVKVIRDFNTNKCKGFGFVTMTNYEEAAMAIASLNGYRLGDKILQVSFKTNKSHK

AUUUAUUUAUUUAUUUA (ssRNA) [4A]: binds.
